The values below come from US20040175731, “Methods and products for treating staphylococcal infections” (The Brigham and Women's Hospital, Inc., published 2004).

In data set [1] the target is T1, IcaR (Staphylococcus aureus, UniProt Q9RQQ0 SEQ:1-186).
T1 sequence: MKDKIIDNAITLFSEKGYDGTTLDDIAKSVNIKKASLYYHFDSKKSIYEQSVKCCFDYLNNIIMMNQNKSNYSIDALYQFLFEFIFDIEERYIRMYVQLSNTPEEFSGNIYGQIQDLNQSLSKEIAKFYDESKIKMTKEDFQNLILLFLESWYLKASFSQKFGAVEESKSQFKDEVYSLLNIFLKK
As to the kind of experiment: EMSA; data not shown. To be noted: tags: N-terminal His6 (pCRT7-NT); chain copies: 2; label: 32P.

Data set [2] has as its target T1, IcaR. As to the kind of experiment: EMSA; recombinant IcaR failed to bind either short probe. To be noted: tags: N-terminal His6 (pCRT7-NT); chain copies: 2; label: 32P.
Data set [3] deals with T1, IcaR. The data set can be described thus: EMSA; no detectable difference from WT probe. As to conditions: tags: N-terminal His6 (pCRT7-NT); chain copies: 2; label: 32P.
Data set [4] concerns the target T2, TcaR (Staphylococcus aureus, UniProt Q9F4G3 Q9F4G3:1-151). As to the kind of experiment: footprint; data not shown; protection much the same as WT. To be noted: chain copies: 2; label: 32P.
Data set [5] concerns the target T1, IcaR. As to the kind of experiment: EMSA; on ice; competed by 100x specific competitor. As to conditions: tags: N-terminal His6 (pCRT7-NT); chain copies: 2; label: 32P.
For data set [6], the target named is T2, TcaR. As to the kind of experiment: footprint; data not shown; multiple sites protected, specific and high affinity. As to conditions: chain copies: 2; label: 32P.

T2 sequence (Q9F4G3 whole entry, one chain of several): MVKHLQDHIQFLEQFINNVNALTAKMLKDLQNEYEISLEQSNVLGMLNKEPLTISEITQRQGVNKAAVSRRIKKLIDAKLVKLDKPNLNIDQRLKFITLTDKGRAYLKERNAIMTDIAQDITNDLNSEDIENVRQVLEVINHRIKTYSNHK

B1: WTshort 53-bp (dsDNA)
DNA 1: CTATGTTACAGGAAAATTAAGTTGCAATTACAAATATTTCCGTTTAATTATAA
DNA 2: TTATAATTAAACGGAAATATTTGTAATTGCAACTTAATTTTCCTGTAACATAG
In the case of B1, in the data set with IcaR [1], the binding result is reported as “no binding”.

B2: DEL/MUC 48-bp (dsDNA)
DNA 1: CTATGTTACAGGAAAATTAAGTTGCAATTACAAACCGTTTAATTATAA
DNA 2: TTATAATTAAACGGTTTGTAATTGCAACTTAATTTTCCTGTAACATAG
As for B2, the binding result in the data set with IcaR [2] is on record as “no binding”.

B3: 193-bp MUC ica promoter probe (dsDNA)
DNA 1: ATTGCGTTATCAATAATCTTATCCTTCAATTTTTATAACCCCCTACTGAAAATTAATCACACTATGTTACAGGAAAATTAAGTTGCAATTACAAACCGTTTAATTATAACAACAATCTATTGCAAATTAAAATACTATCAATTACCATATGGCTTACAACCTAACTAACGAAAGGTAGGTAAAGAAATTGCAA
DNA 2: TTGCAATTTCTTTACCTACCTTTCGTTAGTTAGGTTGTAAGCCATATGGTAATTGATAGTATTTTAATTTGCAATAGATTGTTGTTATAATTAAACGGTTTGTAATTGCAACTTAATTTTCCTGTAACATAGTGTGATTAATTTTCAGTAGGGGGTTATAAAAATTGAAGGATAAGATTATTGATAACGCAAT
With B3, the binding result with IcaR [3] and in the data set with TcaR [4] was “binds” in each case.

B4: 198-bp WT ica promoter probe (dsDNA)
DNA 1: ATTGCGTTATCAATAATCTTATCCTTCAATTTTTATAACCCCCTACTGAAAATTAATCACACTATGTTACAGGAAAATTAAGTTGCAATTACAAATATTTCCGTTTAATTATAACAACAATCTATTGCAAATTAAAATACTATCAATTACCATATGGCTTACAACCTAACTAACGAAAGGTAGGTAAAGAAATTGCAA
DNA 2: TTGCAATTTCTTTACCTACCTTTCGTTAGTTAGGTTGTAAGCCATATGGTAATTGATAGTATTTTAATTTGCAATAGATTGTTGTTATAATTAAACGGAAATATTTGTAATTGCAACTTAATTTTCCTGTAACATAGTGTGATTAATTTTCAGTAGGGGGTTATAAAAATTGAAGGATAAGATTATTGATAACGCAAT
Regarding B4, the binding result with IcaR [5] and in the data set with TcaR [6] was “binds” in each case.
